Assay: soluble on expression in E. coli; label from the status in PepcDB or PDB records

| Sequence | soluble on expression in E. coli |
| --- | --- |
| MGSDKIHHHHHHMFENEILFDNGQHKFMFLGWEEKEEEIVQTNQYLILDGNEGILLDPGGAHVFPRVMSNVAEVVDLSSIRHIFYTHQDPDVTSGILLWLSICENAKIYISSLWVRFLPHFGIYDQKRIVPISDKGTKIKLLSGNELEILPAHFLHSTGNFVLYDPVAKILFSGDIGAAVFEKGKRYRYVDDFERHLPLMEAFHKRYMSSNAACKKWVDMVSKKKIDMIAPQHGAVFRGESVKKFLEWFRNLKCGVDLIDNLYSL | not soluble |
| MSRIMIQGTASSVGKSILVAALCRIFKQDGFSVCPYKSQNMSLNSYITLDGKEMGRAQVLQAYAAGLEPEVYMNPILLKPTTDKSCQVIVKGEVYGVSSAKNYYNMKKEFAPMLKEDFEELEDKFDIVVIEGAGSPAEINLRENDIVNMGLAELVDAPVVLVGDIDKGGVFASLFGTVMLLEENERKRIKGTIINKFRGDVEILKPGLSMLEERINIPCFGVVPYFN | not soluble |
| MKRFLIITILALSVFSLALTLDDAYRLANITQRKLIMMFSSPTCYYCNLFKKEVFPKEDFQEILIPNFVFVELYATDEKTTLFAKEVLGEESVSYRDLFAGFGVRGTPTFFFFKGKEGLGYLPGYVDKDNFIKILKYVAQELKEDFQTYLKKDDPFVGEPLIIEIFKEDADFVLEKDENAVKVDTVPNEVRRDRIYVTDSPDVAKTLQEKGALRVLLAK | not soluble |
| MGSDKIHHHHHHMANFIEKITYLGTPAIKAGNEHLEMIVVPEWGSNVISLVDKTTNVQLLREPETAESFHDTPTLYGIPILFPPNRISDGTFSFRGRTYHFDINEKDKHNHLHGFLYHEKWNVVTTKQTDEGVIVETEIDLSELPHVQKQFPHHAVVRMTYTIKENTLFKHATVMNKGKEAFPWGIGYHTTFIFPAESSLFSLTADQQWELDERLLPTGKLMDVPYKEALHEGMDLRHKQLDDVFLSSYQKRGGENQAVIYHQHAHISIIYKADEQFKHWVVYNADGKQGYLCPEPYTWVTNAVNLDLPSSLTGLQVLEPGEETTAKSSITIELNHQ | not soluble |
| MSLENNKAKMNEKEEIIFNSIRKNPYISQQELADILDLSRPTVANLISGLIKKGRILGKAYILNEAKQIVCIGGANVDRKFYIKDKAQLATSNPVRSTQSAGGVARNVGENLGRLGKEVILLTACGTDSDWEAVKNASNTYMNLDYVTAFPSIATGSYTAVLENNGDLLVALADMDAYDHLTPDVLAKNEGLLSQASAIIADLNCPKETLEYLGSFAEINSIPLVLVPVSSPKMSHLPERLDHVTWLICNRDESETHLEMTIENDEDWRLAAQKWLDLGVKNVIVTNGSKGAVAANNAEGIIFEPAIVIENIVDVTGAGDAFCSAVIYAWLEGKSLQEILKAGSVNAARTLESEYTVRQNLSTSQLQKDLEEFKEGHHHHHH | soluble |
| SKAVIVIPARYGSSRLPGKPLLDIVGKPMIQHVYERALQVAGVAEVWVATDDPRVEQAVQAFGGKAIMTRNDHESGTDRLVEVMHKVEADIYINLQGDEPMIRPRDVETLLQGMRDDPALPVATLCHAISAAEAAEPSTVKVVVNTRQDALYFSRSPIPYPRNAEKARYLKHVGIYAYRRDVLQNYSQLPESMPEQAESLEQLRLMNAGINIRTFEVAATGPGVDTPACLEKVRALMAQELAENA | soluble |
| AIASEVSCKKRDDYLEWPEYFMAVAFLSAQRSKDPNSQVGACIVNSENKIVGIGYNGMPNGCSDDVLPWRRTAENKLDTKYPYVCHAELNAIMNKNLTDVKGCSMYVALFPCNECAKLIIQAGIKEVIFMSDKYHDSDEATAARLLFNMAGVTFRKFIPKCSKIVIDFDSINSRPSQKLQ | soluble |
| MSGAESYRHITVLLNEAVDALAVREDGVYVDGTFGRGGHSRLILSRLGDAGRLIVFDKDPQAIAVAEELARSDKRVGVVHGGFASFQTALDGLGIGKVDGALFDLGISSPQIDDGSRGFSFRFDAPLDMRMDTTRGMSAAEWIAVASEQDLHEVIKNYGEERFSRQIARAIVAQRAESPIDTTRKLAQIVAQNVRTRERGQDPATRTFQAIRIFINRELEEVGAVLPQVMCRLKEGGRLAVIAFHSLEDRIVKQFVKKYSQHAPLPRWAAVREADLPEPPLKIAGRALKPGEAEIAANPRARSAVLRVAERTAGPIPEQSQRKTSEWQLEHHHHHH | not soluble |
| MSEKLQKVLARAGHGSRREIESIIEAGRVSVDGKIAKLGDRVEVTPGLKIRIDGHLISVRESAEQICRVLAYYKPEGELCTRNDPEGRPTVFDRLPKLRGARWIAVGRLDVNTCGLLLFTTDGELANRLMHPSREVEREYAVRVFGQVDDAKLRDLSRGVQLEDGPAAFKTIKFSGGEGINQWYNVTLTEGRNREVRRLWEAVGVQVSRLIRVRYGDIPLPKGLPRGGWTELDLAQTNYLRELVELPPETSSKVAVEKDRRRMKANQIRRAVKRHSQVSGGRRSGGRNNNG | soluble |
| MSQRPTSSHDSSAPHHIPVDDCLTYDTGYRPNLPGQRTWWVFCPVTGAFDNSYALLGAMIECVARGQATLAPAWDRTFAGGIWYDFDCGADVLDGRLLMDMAVDDMQRRIERYMSTNDGQMGCKPALGFR | not soluble |
| MGSDKIHHHHHHMFDDKMSGNAMNAEIELKLFFLPIYQESLINKLDSLDNAVPQGKRRLANGYFDTPDLQLRQWDMGLRVRGYDAHREQTIKTAGQVVGGIHSRPEYNVTIQADSPDLSLFPASIWPADADLAATQAQLTCIFHTDFYRRSWHVQIDNSVVEVALDIGEITANGQQEALCELEFELLSGDTEALLKLAMQVASVVPVRLGKASKAQRGYRLAGKAKPLDLTALEFLPLAEPRDSSTQDLTANCQILLETALERWQLLESMIAEESKPEACVALWWRMRACIRLLRMTLSQFELLNVTLSSRFMSIEKQLDFIEQAQALTALLGSQRGLFAKLGQHAQVKARLMAQLSEIHLTERLLSLWQQTEYGQLQLAIVEILLKVSAGEVDISNQPSLRQHADRAQQASWMAIVEVMPLNTVMTSANYLQVAAVLDESILVGHAYGSLYEAKSRDAFRAPWQDLVLGIKTLACYRAVQDASRELDIDLNEWLEDKQQSLLFAMESTRRNAMQQQAYW | not soluble |
| MKKVAIIGAGIVGATAAYYLSKEKDIAVTVFDDGFGQATKAAAGIICPWFSKRRHKAWYRLARLGADFYQTLLSDLKRDACKVDFYEQSGAFLLKNKAESLDELFEIGQKRKSQSPLIGHLEIQKRADLTGLLADLVGFDRCIYASGAARVEGASLTEALLNASHAKMVNKKVGLQVLSDGNYRVNGKKYTAVLLACGAWLPQILEPLGYKIDIRPQKGQLRDYFFNSEDTEKFPVIMPEGEVDIIPFAHGKVSVGASHENDHGFDLQIDNSVLDKMEKEAQTYFPKLKEATSKNERVGTRAYTRDFAPFFGRVTGLANVYAASGLGSSGLTTGPLIGNQLVKMLLDKELDIQASDYSPDKYIVKNSLEHHHHHH | not soluble |
| MRIFSRLFKARDKPKNSLFGNAYSFFFGGTSSGKAVNERTAMQTTAVYACVRILAEAIAGLPLHVYRYKEDGGKEKALTHPLYYLLHDEPNPEMTSFVFRETLMSHLLLWGNAYAQIVRDGSGRVLALYPLLPNKMTVDRAPNGELYYTYRRDSDESRVNPKAGLIYLRSDEVLHIPGLGFDGLIGYSPIAMAKNAIGMAIACEEYGASFFANGANPGGVLEHPGVLKDPAKVRESWNAVYQGSANAHRIAVLEEGMKFQPIGIPPEQAQFLETRKFQINEIARIFRVPPHMVGDLEKSSFSNIEQQSLEFVKYTLDPWVVRWEQALQKALLLPSEKRAYFVKFNVDGLLRGDYASRMNGYAVARQNGWMSANDIRELEDMNRIPAELGGDLYLVNGNMTRLADAGTFAGKNNAETEGSKVEQITKTKTGSPLLELDTKR | not soluble |
| MGSDKIHHHHHHMNSSLQVGIGIDVGSSSARIGVYNYYNDALLEMAQEPVPYYQDSSKKSWKFWQKSTEIIKALQKCLQKLNIREYEVKSCGVSATCSLAIFERDRTSNMLIPYPNEDNVIFWMDSSAVNECQWLNMQCPQQLLDYLGGKFVPEMGVPKLKYFLDEYSHLRDKHFHIFDLHQYIAYELSRLYEWNIEGLLGRENLNGIGNDGEVSGWSSSFYKNIINLPSNVSIGTTSLVANKHISTTVVRSCIDSYASWFAVASPHLETSLFMIAGTSSCYMYGTTISDTRIPGVWGPFDTILDNRGDFSVYAAGQSCTGKLIEHLFESHPCARKILKDGADIYQVLEQTIRDIEKNNGLSIHILTKDMFFYGDYEGNRTPFADPRIKGSFIGESTDTSMLNLTYKYICILEFLSFQTKLIIDTFQNENSNIHIKELRISGSQAKNERLLSLISLVNNGVAIIKPKENVDMMGIKGAYVLAKSAKEKKQLADVITERDISNDSEKFESLAEYRLGNDSILLRKLLCVKYHIHLDMAKQQKRYHKLVDEVFQHL | not soluble |
| MSIAQQLMDMGFPADKAEAAAGNNRNLDQALDWIEKDGAGVPMETDAPAQAAPGAADSGAPPVAASFKCDDCGKLLANDDAIMFHASKTKHENFSESSEAIKPLTAEEKAAKVLEIREKIKVHQAKKAKLEAEENREKEKKRREDGKAMISHKEAARDREIREAAQDRRREKNEDEIARKRVLEQIRLDKEARKAKASGQPVPEAKPAPSAAPVAPPKDYSTTTLQFRLLDGQTVRQQFEANEPLAMVRAWVETNHANGVPFTLMTPFPRKVFTEDDMGTPLKVLNLVPSANVILNRAA | not soluble |
| SSVASALLLQEAQAGFCRVDGTIDNNHTGFTGSGFANTNNAQGAAVVWAIDATSSGRRTLTIRYANGGTANRNGSLVINGGSNGNYTVSLPTTGAWTTWQTATIDVDLVQGNNIVQLSATTAEGLPNIDSLSVVGGTVRAGNCG | soluble |
| MGSDKIHHHHHHMDPAPSLGCSLKDVKWSSVAVPLDLLVSTYRLPQIARLDNGECVEGLRENDYLLIHSCRQWTTITAHSLEEGHYVIGPKIEIPVHYAGQFKLLEQDRDIKEPVQYFNSVEEVAKAFPERVYVMEDITFNVKVASGECNEDTEVYNITLCTGDELTLMGQAEILYAKTFKEKSRLNTIFKKIGKLNSISKLGKGKMPCLICMNHRTNESISLPFQCKGRFSTRSPLELQMQEGEHTIRNIVEKTRLPVNVTVPSPPPRNPYDLHFIREGHRYKFVNIQTKTVVVCCVLRNNKILPMHFPLHLTVPKFSLPEHLVKGESWPETLVHHWLGICQEQFDIDEYSRAVRDVKTDWNEECK | not soluble |
| MSLPKPQLRIIAGDFEDPRIIALLAHHFATMRSTGPEESCHVMPLGTMRQADLDFFAAWDGDALAGFGAVKQLGDGHGEIKSMHTAAAYRGRGVGQAVLDHLSTHARALGLQRLSLETGAGDFFVPARAMYARNGFQTCDPFGDYKPDPNSVFMTRMLEGHHHHHH | not soluble |
| MRNKVLIVLAVIAGALILKSCGEPYSGAKETVGEFMEEIAEGEGRDAIKYLYPAYRDELAKNFKLPVQFTEMKPSEVLACVLSTMGRNIDEVEIKKAIAVNPNTANVVVKVEDKEGIEKFFSFTVVKEGDKWYIAKIEKYIPQVGR | not soluble |
| MGSDKIHHHHHHMELSQNAPNELEYIREFLNTWRIPNDTREAIDLLQTEEDIKLFMKEYFHEEFPFHTIEELKSFREDIRMTIEGEGSLEKWLEKYPFHVYIKEDMKGITYEPIHEETVYTKVLSIVLIAVQENLWGRLKACPDCRWVFYDNSRNGSKRWCGMYAGEEGGRACGTIAKVKNYRAKRKGRSGYNV | not soluble |

From the DeepSol protein solubility set
